Results reported in paper PMC4899734, “Selective inhibition of apicoplast tryptophanyl-tRNA synthetase causes delayed death in Plasmodium falciparum” (Scientific Reports, 2016).

T1: apicoplast tryptophanyl-tRNA synthetase (TrpRS^api, PF3D7_1251700) (Plasmodium falciparum, UniProt A0A144A140)
T1 sequence (A0A144A140 61-559): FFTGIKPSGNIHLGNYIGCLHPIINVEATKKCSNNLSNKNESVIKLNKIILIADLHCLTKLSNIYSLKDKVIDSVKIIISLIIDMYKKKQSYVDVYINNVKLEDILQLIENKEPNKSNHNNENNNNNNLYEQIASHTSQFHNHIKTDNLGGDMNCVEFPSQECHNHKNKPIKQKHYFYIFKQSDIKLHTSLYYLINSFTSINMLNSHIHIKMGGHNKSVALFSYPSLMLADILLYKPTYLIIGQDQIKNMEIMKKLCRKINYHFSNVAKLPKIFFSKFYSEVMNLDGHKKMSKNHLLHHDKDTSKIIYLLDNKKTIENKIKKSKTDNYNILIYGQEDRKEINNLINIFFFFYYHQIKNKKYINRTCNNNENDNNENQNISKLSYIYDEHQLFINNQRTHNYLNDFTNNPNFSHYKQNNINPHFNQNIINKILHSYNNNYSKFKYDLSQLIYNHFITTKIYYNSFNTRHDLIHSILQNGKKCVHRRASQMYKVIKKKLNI


Columns and labels:
[1] = molecular target: T1, apicoplast tryptophanyl-tRNA synthetase (TrpRS^api, PF3D7_1251700); assay: radiolabelled tryptophan tRNA aminoacylation assay with purified recombinant enzyme, […] indolmycin; format: biochemical
[2] = substrate: N[C@@H](Cc1c[nH]c2ccccc12)C(=O)O; assay: steady-state aminoacylation kinetics with purified enzyme (apparent Km); format: biochemical, Plasmodium falciparum; details: ATP, Mg2+
[3] = substrate: Nc1ncnc2c1ncn2[C@@H]1O[C@H](COP(=O)(O)OP(=O)(O)OP(=O)(O)O)[C@@H](O)[C@H]1O; assay: as above; format: biochemical, Plasmodium falciparum; details: Mg2+

Molecule | radiolabelled tryptophan tRNA aminoacylation assay with purified recombinant enz [1] | Km [2] | Vmax [2] | Km [3] | Vmax [3]
CNC1=NC(=O)[C@H]([C@H](C)c2c[nH]c3ccccc23)O1 [indolmycin] | at higher concentrations of indolmycin, tRNA^trp formation by TrpRS^api was reduced to background levels |  |  |  | 
cytosolic tryptophanyl-tRNA synthetase (TrpRS^cyt, PF3D7_1336900) (Plasmodium falciparum 3D7) (protein) KDVTPWDVNINNEEGINYNKLIKEFGCSKITENHIKRIEKLTNSKAHHFIRRGIFFSHRDLDFLLNYYEQHKCFYIYTGRGPSSLSMHLGHLIPFYFCKYLQEAFNVPLVIQLSDDEKYLFNQNYSLEYINTLTNENVKDIISVGLNPELTFIFKNTEYAGYLYPTVLSIHKKTTLNQSMNVFGFNHSDNIGKISYPSFQIAPCFSQCFPNFLGKNIPCLVPQGIDQDPYFRLSRDIAVKMALHKPVVVHSVFMPGLQGVNSKMSSTKKKKDDNGKSNSTFDHNNSVIFLTDTPEQIKNKINKYAFSGGGTTIQEHREKGGNLDKDISYQYLRYLLEDDNKLNEIGEKYKKGEMLSGEIKKILIDVLTELVLKHQEKKKSLTDEEISYFFDPNKPSLQKFKNM |  | 15.6 ± 0.6 µM | 0.077 µmol/min | 622 ± 0.3 µM | 0.292 µmol/min
apicoplast tryptophanyl-tRNA synthetase (TrpRS^api, PF3D7_1251700) (Plasmodium falciparum 3D7) (protein) FFTGIKPSGNIHLGNYIGCLHPIINVEATKKCSNNLSNKNESVIKLNKIILIADLHCLTKLSNIYSLKDKVIDSVKIIISLIIDMYKKKQSYVDVYINNVKLEDILQLIENKEPNKSNHNNENNNNNNLYEQIASHTSQFHNHIKTDNLGGDMNCVEFPSQECHNHKNKPIKQKHYFYIFKQSDIKLHTSLYYLINSFTSINMLNSHIHIKMGGHNKSVALFSYPSLMLADILLYKPTYLIIGQDQIKNMEIMKKLCRKINYHFSNVAKLPKIFFSKFYSEVMNLDGHKKMSKNHLLHHDKDTSKIIYLLDNKKTIENKIKKSKTDNYNILIYGQEDRKEINNLINIFFFFYYHQIKNKKYINRTCNNNENDNNENQNISKLSYIYDEHQLFINNQRTHNYLNDFTNNPNFSHYKQNNINPHFNQNIINKILHSYNNNYSKFKYDLSQLIYNHFITTKIYYNSFNTRHDLIHSILQNGKKCVHRRASQMYKVIKKKLNI |  | 5.3 ± 1.2 µM | 0.029 µmol/min |  | 
